Measurements from the Immune Epitope Database (IEDB).

The sequences below were run against HLA-A*02:01 (assay: IEDB peptide-MHC binding, purified MHC/competitive/radioactivity; ≥ and ≤ were set here for values at or beyond the usual limits of such assays). Details: source organism: Trypanosoma cruzi.

Row | Sequence | IC50 [nM]
1 | ELLRPTTLV | 2410
2 | FANHDFTLV | 101
3 | FANNKFTLV | 116
4 | FANYKFTLV | 49
5 | FANYNFTLL | 1500
6 | FANYNFTLV | 0.47
7 | FLSHDFTLV | 0.46
8 | FLSHNFTLVF | 0.61
9 | FVDYNFSLV | 1.1
10 | FVNHRFTLV | 304
11 | FVNYNFTLV | 0.25
12 | FVSCDFTIV | 30
13 | GLLPSLLLLL | 3.1
14 | IANYNFTLV | 29600
15 | LLGLWGLATA | 24
16 | RLLPSLLLLL | 0.8
17 | RVSRPTTVV | 2490
18 | SLSHYFTLVF | 1.6
